# Data: article PMC2119167 (The Journal of Experimental Medicine, 1992)
# Target: the molecule itself
# Test: SEC
protein,measurement,value
platelet membrane GMP-140 (P-selectin) (natural protein) WTYHYSTKAYSWNISRKYCQNRYTDLVAIQNKNEIDYLNKVLPYYSSYYWIGIRKNNKTWTWVGTKKALTNEAENWADNEPNNKRNNEDCVEIYIKSPSAPGKWNDEHCLKKKHALCYTASCQDMSCSKQGECLETIGNYTCSCYPGFYGPECEYVRECGELELPQHVLMNCSHPLGNFSFNSQCSFHCTDGYQVNGPSKLECLASGIWTNKPPQCLAAQCPPLKIPERGNMTCLHSAKAFQHQSSCSFSCEEGFALVGPEVVQCTASGVWTAPAPVCKAVQCQHLEAPSEGTMDCVHPLTAFAYGSSCKFECQPGYRVRGLDMLRCIDSGHWSAPLPTCEAISCEPLESPVHGSMDCSPSLRAFQYDTNCSFRCAEGFMLRGADIVRCDNLGQWTAPAPVCQALQCQDLPVPNEARVNCSHPFGAFRYQSVCSFTCNEGLLLVGASVLQCLATGNWNSVPPECQAIPCTPLLSPQNGTMTCVQPLGSSSYKSTCQFICDEGYSLSGPERLDCTRSGRWTDSPPMCEAIKCPELFAPEQGSLDCSDTRGEFNVGSTCHFSCDNGFKLEGPNNVECTTSGRWSATPPTCKGIASLPTPGVQCPALTTPGQGTMYCRHHPGTFGFNTTCYFGCNAGFTLIGDSTLSCRPSGQWTAVTPACRAVKCSELHVNKPIAMNCSNLWGNFSYGSICSFHCLEGQLLNGSAQTACQENGHWSTTVPTCQAGPLTIQEALTYFGGAVASTIGLIMGGTLLALLRKRFRQKDDGKCPLNPHSHLGTYGVFTNAAFDPSP,stoichiometry N,4
